B1: XPA23 Fab, heavy chain D106S (Fab, V domains shown)
VH: EVQLLESGGGLVQPGGSLRLSCAASGFTFSKYFMFWVRQAPGKGLEWVSVISPSGGMTRYADSVKGRFTISRDNSKNTLYLQMNSLRAEDTAVYYCARVGYGGNSSYWGQGTLVTVSS
VL: DIQMTQSPSSVSASVGDRLTIICRASQDINRWLAWYQQTPGNAPKLLIHSATSLQSGVPSRFSGSGSGTDFTLTINSLQPEDFATYYCQQADSFPLTFGGGTKVEIK
B2: XPA23 Fab, heavy chain F35S (Fab, V domains shown)
VH: EVQLLESGGGLVQPGGSLRLSCAASGFTFSKYFMSWVRQAPGKGLEWVSVISPSGGMTRYADSVKGRFTISRDNSKNTLYLQMNSLRAEDTAVYYCARVGYGGNSDYWGQGTLVTVSS
VL: DIQMTQSPSSVSASVGDRLTIICRASQDINRWLAWYQQTPGNAPKLLIHSATSLQSGVPSRFSGSGSGTDFTLTINSLQPEDFATYYCQQADSFPLTFGGGTKVEIK
B3: XPA23 Fab, heavy chain F33N (Fab, V domains shown)
VH: EVQLLESGGGLVQPGGSLRLSCAASGFTFSKYNMFWVRQAPGKGLEWVSVISPSGGMTRYADSVKGRFTISRDNSKNTLYLQMNSLRAEDTAVYYCARVGYGGNSDYWGQGTLVTVSS
VL: DIQMTQSPSSVSASVGDRLTIICRASQDINRWLAWYQQTPGNAPKLLIHSATSLQSGVPSRFSGSGSGTDFTLTINSLQPEDFATYYCQQADSFPLTFGGGTKVEIK
B4: XPA23 Fab, heavy chain F33Y (Fab, V domains shown)
VH: EVQLLESGGGLVQPGGSLRLSCAASGFTFSKYYMFWVRQAPGKGLEWVSVISPSGGMTRYADSVKGRFTISRDNSKNTLYLQMNSLRAEDTAVYYCARVGYGGNSDYWGQGTLVTVSS
VL: DIQMTQSPSSVSASVGDRLTIICRASQDINRWLAWYQQTPGNAPKLLIHSATSLQSGVPSRFSGSGSGTDFTLTINSLQPEDFATYYCQQADSFPLTFGGGTKVEIK
B5: XPA23 Fab, heavy chain F35D (Fab, V domains shown)
VH: EVQLLESGGGLVQPGGSLRLSCAASGFTFSKYFMDWVRQAPGKGLEWVSVISPSGGMTRYADSVKGRFTISRDNSKNTLYLQMNSLRAEDTAVYYCARVGYGGNSDYWGQGTLVTVSS
VL: DIQMTQSPSSVSASVGDRLTIICRASQDINRWLAWYQQTPGNAPKLLIHSATSLQSGVPSRFSGSGSGTDFTLTINSLQPEDFATYYCQQADSFPLTFGGGTKVEIK
B6: XPA23 Fab, heavy chain F33K (Fab, V domains shown)
VH: EVQLLESGGGLVQPGGSLRLSCAASGFTFSKYKMFWVRQAPGKGLEWVSVISPSGGMTRYADSVKGRFTISRDNSKNTLYLQMNSLRAEDTAVYYCARVGYGGNSDYWGQGTLVTVSS
VL: DIQMTQSPSSVSASVGDRLTIICRASQDINRWLAWYQQTPGNAPKLLIHSATSLQSGVPSRFSGSGSGTDFTLTINSLQPEDFATYYCQQADSFPLTFGGGTKVEIK
B7: XPA23 Fab, heavy chain F33R (Fab, V domains shown)
VH: EVQLLESGGGLVQPGGSLRLSCAASGFTFSKYRMFWVRQAPGKGLEWVSVISPSGGMTRYADSVKGRFTISRDNSKNTLYLQMNSLRAEDTAVYYCARVGYGGNSDYWGQGTLVTVSS
VL: DIQMTQSPSSVSASVGDRLTIICRASQDINRWLAWYQQTPGNAPKLLIHSATSLQSGVPSRFSGSGSGTDFTLTINSLQPEDFATYYCQQADSFPLTFGGGTKVEIK
B8: XPA23 Fab, heavy chain F33E (Fab, V domains shown)
VH: EVQLLESGGGLVQPGGSLRLSCAASGFTFSKYEMFWVRQAPGKGLEWVSVISPSGGMTRYADSVKGRFTISRDNSKNTLYLQMNSLRAEDTAVYYCARVGYGGNSDYWGQGTLVTVSS
VL: DIQMTQSPSSVSASVGDRLTIICRASQDINRWLAWYQQTPGNAPKLLIHSATSLQSGVPSRFSGSGSGTDFTLTINSLQPEDFATYYCQQADSFPLTFGGGTKVEIK
B9: XPA23 Fab, heavy chain F33S (Fab, V domains shown)
VH: EVQLLESGGGLVQPGGSLRLSCAASGFTFSKYSMFWVRQAPGKGLEWVSVISPSGGMTRYADSVKGRFTISRDNSKNTLYLQMNSLRAEDTAVYYCARVGYGGNSDYWGQGTLVTVSS
VL: DIQMTQSPSSVSASVGDRLTIICRASQDINRWLAWYQQTPGNAPKLLIHSATSLQSGVPSRFSGSGSGTDFTLTINSLQPEDFATYYCQQADSFPLTFGGGTKVEIK
B10: XPA23 Fab, heavy chain F35Q (Fab, V domains shown)
VH: EVQLLESGGGLVQPGGSLRLSCAASGFTFSKYFMQWVRQAPGKGLEWVSVISPSGGMTRYADSVKGRFTISRDNSKNTLYLQMNSLRAEDTAVYYCARVGYGGNSDYWGQGTLVTVSS
VL: DIQMTQSPSSVSASVGDRLTIICRASQDINRWLAWYQQTPGNAPKLLIHSATSLQSGVPSRFSGSGSGTDFTLTINSLQPEDFATYYCQQADSFPLTFGGGTKVEIK
B11: XPA23 Fab, heavy chain F33Q (Fab, V domains shown)
VH: EVQLLESGGGLVQPGGSLRLSCAASGFTFSKYQMFWVRQAPGKGLEWVSVISPSGGMTRYADSVKGRFTISRDNSKNTLYLQMNSLRAEDTAVYYCARVGYGGNSDYWGQGTLVTVSS
VL: DIQMTQSPSSVSASVGDRLTIICRASQDINRWLAWYQQTPGNAPKLLIHSATSLQSGVPSRFSGSGSGTDFTLTINSLQPEDFATYYCQQADSFPLTFGGGTKVEIK
B12: XPA23 Fab, heavy chain F35E (Fab, V domains shown)
VH: EVQLLESGGGLVQPGGSLRLSCAASGFTFSKYFMEWVRQAPGKGLEWVSVISPSGGMTRYADSVKGRFTISRDNSKNTLYLQMNSLRAEDTAVYYCARVGYGGNSDYWGQGTLVTVSS
VL: DIQMTQSPSSVSASVGDRLTIICRASQDINRWLAWYQQTPGNAPKLLIHSATSLQSGVPSRFSGSGSGTDFTLTINSLQPEDFATYYCQQADSFPLTFGGGTKVEIK
B13: XPA23 Fab, heavy chain D106W (Fab, V domains shown)
VH: EVQLLESGGGLVQPGGSLRLSCAASGFTFSKYFMFWVRQAPGKGLEWVSVISPSGGMTRYADSVKGRFTISRDNSKNTLYLQMNSLRAEDTAVYYCARVGYGGNSWYWGQGTLVTVSS
VL: DIQMTQSPSSVSASVGDRLTIICRASQDINRWLAWYQQTPGNAPKLLIHSATSLQSGVPSRFSGSGSGTDFTLTINSLQPEDFATYYCQQADSFPLTFGGGTKVEIK
B14: XPA23 Fab, heavy chain F35N (Fab, V domains shown)
VH: EVQLLESGGGLVQPGGSLRLSCAASGFTFSKYFMNWVRQAPGKGLEWVSVISPSGGMTRYADSVKGRFTISRDNSKNTLYLQMNSLRAEDTAVYYCARVGYGGNSDYWGQGTLVTVSS
VL: DIQMTQSPSSVSASVGDRLTIICRASQDINRWLAWYQQTPGNAPKLLIHSATSLQSGVPSRFSGSGSGTDFTLTINSLQPEDFATYYCQQADSFPLTFGGGTKVEIK
B15: XPA23 Fab, heavy chain D106Y (Fab, V domains shown)
VH: EVQLLESGGGLVQPGGSLRLSCAASGFTFSKYFMFWVRQAPGKGLEWVSVISPSGGMTRYADSVKGRFTISRDNSKNTLYLQMNSLRAEDTAVYYCARVGYGGNSYYWGQGTLVTVSS
VL: DIQMTQSPSSVSASVGDRLTIICRASQDINRWLAWYQQTPGNAPKLLIHSATSLQSGVPSRFSGSGSGTDFTLTINSLQPEDFATYYCQQADSFPLTFGGGTKVEIK
B16: XPA23 Fab, heavy chain F33H (Fab, V domains shown)
VH: EVQLLESGGGLVQPGGSLRLSCAASGFTFSKYHMFWVRQAPGKGLEWVSVISPSGGMTRYADSVKGRFTISRDNSKNTLYLQMNSLRAEDTAVYYCARVGYGGNSDYWGQGTLVTVSS
VL: DIQMTQSPSSVSASVGDRLTIICRASQDINRWLAWYQQTPGNAPKLLIHSATSLQSGVPSRFSGSGSGTDFTLTINSLQPEDFATYYCQQADSFPLTFGGGTKVEIK
B17: XPA23 Fab, heavy chain F33D (Fab, V domains shown)
VH: EVQLLESGGGLVQPGGSLRLSCAASGFTFSKYDMFWVRQAPGKGLEWVSVISPSGGMTRYADSVKGRFTISRDNSKNTLYLQMNSLRAEDTAVYYCARVGYGGNSDYWGQGTLVTVSS
VL: DIQMTQSPSSVSASVGDRLTIICRASQDINRWLAWYQQTPGNAPKLLIHSATSLQSGVPSRFSGSGSGTDFTLTINSLQPEDFATYYCQQADSFPLTFGGGTKVEIK
B18: XPA23 Fab, heavy chain F35R (Fab, V domains shown)
VH: EVQLLESGGGLVQPGGSLRLSCAASGFTFSKYFMRWVRQAPGKGLEWVSVISPSGGMTRYADSVKGRFTISRDNSKNTLYLQMNSLRAEDTAVYYCARVGYGGNSDYWGQGTLVTVSS
VL: DIQMTQSPSSVSASVGDRLTIICRASQDINRWLAWYQQTPGNAPKLLIHSATSLQSGVPSRFSGSGSGTDFTLTINSLQPEDFATYYCQQADSFPLTFGGGTKVEIK
B19: XPA23 Fab, heavy chain F35H (Fab, V domains shown)
VH: EVQLLESGGGLVQPGGSLRLSCAASGFTFSKYFMHWVRQAPGKGLEWVSVISPSGGMTRYADSVKGRFTISRDNSKNTLYLQMNSLRAEDTAVYYCARVGYGGNSDYWGQGTLVTVSS
VL: DIQMTQSPSSVSASVGDRLTIICRASQDINRWLAWYQQTPGNAPKLLIHSATSLQSGVPSRFSGSGSGTDFTLTINSLQPEDFATYYCQQADSFPLTFGGGTKVEIK
B20: XPA23 Fab, heavy chain F35K (Fab, V domains shown)
VH: EVQLLESGGGLVQPGGSLRLSCAASGFTFSKYFMKWVRQAPGKGLEWVSVISPSGGMTRYADSVKGRFTISRDNSKNTLYLQMNSLRAEDTAVYYCARVGYGGNSDYWGQGTLVTVSS
VL: DIQMTQSPSSVSASVGDRLTIICRASQDINRWLAWYQQTPGNAPKLLIHSATSLQSGVPSRFSGSGSGTDFTLTINSLQPEDFATYYCQQADSFPLTFGGGTKVEIK
B21: XPA23 Fab, heavy chain F33W (Fab, V domains shown)
VH: EVQLLESGGGLVQPGGSLRLSCAASGFTFSKYWMFWVRQAPGKGLEWVSVISPSGGMTRYADSVKGRFTISRDNSKNTLYLQMNSLRAEDTAVYYCARVGYGGNSDYWGQGTLVTVSS
VL: DIQMTQSPSSVSASVGDRLTIICRASQDINRWLAWYQQTPGNAPKLLIHSATSLQSGVPSRFSGSGSGTDFTLTINSLQPEDFATYYCQQADSFPLTFGGGTKVEIK

Target: T1, IL-1beta (UniProt P01584 117-269)
T1 construct: also called IL-1β
Experiment: Biacore

Binder	fold difference in affinity vs parental [fold]	binding result
B1	0.03	–
B2	0.09	–
B3	0.97	–
B4	0.77	–
B5	0.06	–
B6	0.85	–
B7	–	no binding
B8	0.86	–
B9	0.73	–
B10	–	no binding
B11	0.78	–
B12	–	no binding
B13	–	no binding
B14	0.86	–
B15	–	no binding
B16	–	no binding
B17	0.92	–
B18	–	no binding
B19	–	no binding
B20	0.68	–
B21	0.79	–
